Assay results as given in patent US20250320281A1.

Experiments:
Assay in all cases: cell-based or functional assay
[1] = target: HIV-1 Env of isolate JR-CSF (pseudovirus) (HIV-1) (UniProt P20871)
[2] = target: HIV-1 Env of isolate MGRM-AG-009 (HIV-1)
[3] = target: HIV-1 Env of isolate MGRM-Chronic-B-008 (subtype B pseudovirus) (HIV-1)
[4] = target: HIV-1 APV6 Env (pseudovirus, clade B) (HIV-1)
[5] = target: HIV-1 NL43 envelope glycoprotein (Env) on pseudovirus (HIV-1)
[6] = target: HIV-1 Env of pseudovirus isolate MGRM-G-024 (HIV-1)
[7] = target: HIV-1 Env of isolate 92UG046 (pseudovirus) (HIV-1)
[8] = target: HIV-1 Env of pseudovirus isolate MGRM-G-025 (HIV-1)
[9] = target: HIV-1 Env of isolate MGRM-D-012 (pseudovirus) (HIV-1)
[10] = target: HIV-1 Env of isolate MGRM-D-011 (pseudovirus) (HIV-1)
[11] = target: HIV-1 Env of isolate MGRM-Chronic-B-002 (subtype B pseudovirus) (HIV-1)
[12] = target: HIV-1 APV13 Env (pseudovirus) (HIV-1)
[13] = target: HIV-1 Env of isolate MGRM-C-027 (HIV-1)
[14] = target: HIV-1 Env of isolate APV_6 (subtype B pseudovirus) (HIV-1)
[15] = target: HIV-1 Env of isolate MG RM-D-022 (HIV-1)
[16] = target: HIV-1 Env of isolate MGRM-C-004 (subtype C) (HIV-1)
[17] = target: HIV-1 Env of isolate 98CN009 (HIV-1)
[18] = target: HIV-1 Env of isolate MGRM-C-005 (subtype C) (HIV-1)
[19] = target: HIV-1 Env of isolate 92TH021 (pseudovirus) (HIV-1)
[20] = target: HIV-1 Env of isolate 92TH021 (subtype AE) (HIV-1)
[21] = target: HIV-1 Env of isolate MGRM-AE-003 (subtype AE) (HIV-1)
[22] = target: HIV-1 Env of isolate MG RM-D-020 (HIV-1)
[23] = target: HIV-1 Env of isolate MG RM-D-002 (HIV-1)
[24] = target: HIV-1 Env of isolate MGRM-AG-002 (subtype AG) (HIV-1)
[25] = target: HIV-1 Env of isolate MG RM-D-001 (HIV-1)
[26] = target: HIV-1 Env of isolate JRCSF (subtype B) (HIV-1) (UniProt P20871)
[27] = target: HIV-1 Env of isolate MGRM-AG-001 (subtype AG) (HIV-1)
[28] = target: HIV-1 Env of isolate MGRM-AE-006 (subtype AE) (HIV-1)
[29] = target: HIV-1 envelope glycoprotein (Env) of isolate MGRM-C-027 (HIV-1)
[30] = target: HIV-1 envelope glycoprotein (Env) of isolate MGRM-C-020 (HIV-1)
[31] = target: aMLV envelope (negative control pseudovirus)

Sequence of 5329_C19 (PGT-136) (antibody) (VH): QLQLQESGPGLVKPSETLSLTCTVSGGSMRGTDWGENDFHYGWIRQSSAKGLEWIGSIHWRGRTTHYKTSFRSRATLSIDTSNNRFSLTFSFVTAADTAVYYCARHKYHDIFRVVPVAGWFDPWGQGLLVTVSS
Sequence of 5329_C19 (PGT-136) (antibody) (VL): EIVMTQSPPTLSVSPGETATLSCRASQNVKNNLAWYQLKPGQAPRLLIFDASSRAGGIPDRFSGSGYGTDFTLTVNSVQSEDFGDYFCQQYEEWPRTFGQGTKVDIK
Sequence of 5345_I01 (PGT-137) (antibody) (VH): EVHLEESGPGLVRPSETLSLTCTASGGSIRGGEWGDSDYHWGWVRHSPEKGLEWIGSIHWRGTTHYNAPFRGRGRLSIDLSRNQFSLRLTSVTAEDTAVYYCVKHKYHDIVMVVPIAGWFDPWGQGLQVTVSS
Sequence of 5345_I01 (PGT-137) (antibody) (VL): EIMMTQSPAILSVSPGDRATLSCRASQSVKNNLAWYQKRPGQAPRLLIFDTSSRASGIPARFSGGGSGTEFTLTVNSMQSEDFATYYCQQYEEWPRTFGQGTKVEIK

Substance | Primary Neutralization Index (B cell culture supernatant) [1] | IC50 neutralization [4] | IC50 (µg/mL), pseudovirus neutralization [6] | IC50 (µg/mL), pseudovirus neutralization [8] | IC50 (µg/mL), pseudovirus neutralization [15] | IC50 neutralization [16] | IC50 (µg/mL), pseudovirus neutralization [17] | IC50 neutralization [18] | Primary Neutralization Index (B cell culture supernatant) [19] | IC50 (µg/mL), pseudovirus neutralization [20] | IC50 (µg/mL), pseudovirus neutralization [21] | IC50 (µg/mL), pseudovirus neutralization [22] | IC50 (µg/mL), pseudovirus neutralization [23] | IC50 (µg/mL), pseudovirus neutralization [24] | IC50 (µg/mL), pseudovirus neutralization [25] | IC50 neutralization [26] | IC50 (µg/mL), pseudovirus neutralization [27] | IC50 (µg/mL), pseudovirus neutralization [28] | IC50 (µg/mL), pseudovirus neutralization [29] | IC50 (µg/mL), pseudovirus neutralization [30] | also measured
4858_P08 (PGT-123) (antibody) | 1.6 | 0.0328 µg/mL | 0.032 µg/mL | 0.046 µg/mL |  |  |  |  |  |  |  |  |  |  |  |  |  |  |  |  | IC50 [2]: 0.073 µg/mL; IC50 (µg/mL), pseudovirus neutralization [3]: 0.01 µg/mL; neutralization IC50 [5]: > 10 µg/mL; neutralization IC80 [5]: > 10 µg/mL; neutralization IC90 [5]: > 10 µg/mL; neutralization IC95 [5]: > 10 µg/mL; IC50, pseudovirus neutralization [7]: > 50 µg/mL; IC50, pseudovirus neutralization [9]: > 50 µg/mL; IC50, pseudovirus neutralization [10]: 0.012 µg/mL; IC50 (µg/mL), pseudovirus neutralization [11]: 0.234 µg/mL; neutralization IC50 (pseudovirus) [12]: 0.222 µg/mL; neutralization IC50 [13]: 0.02 µg/mL; IC50 (µg/mL), pseudovirus neutralization [14]: 0.023 µg/mL
5114_A19 (PGT-128) (antibody) | 77.5 |  | 0.095 µg/mL | 0.017 µg/mL | > 50 µg/mL | 0.025 µg/mL | 0.025 µg/mL | 0.03 µg/mL | 6.6 | 0.01 µg/mL | 0.18 µg/mL | 0.011 µg/mL | 0.011 µg/mL | 4.99 µg/mL | 0.138 µg/mL | 0.003 µg/mL | 4.73 µg/mL | 0.044 µg/mL | 0.081 µg/mL | 5.85 µg/mL | Polyclonal Transfectant Neutralization Index [1]: 136; Polyclonal Transfectant Neutralization Index [19]: 10
5123_A06 (PGT-125) (antibody) | 1730 | 0.0359 µg/mL | > 50 µg/mL | > 50 µg/mL |  |  |  |  | 133 |  |  |  |  |  |  |  |  |  |  |  | Polyclonal Transfectant Neutralization Index [1]: 119; IC50 [2]: 0.026 µg/mL; IC50 (µg/mL), pseudovirus neutralization [3]: > 50 µg/mL; Polyclonal Transfectant Neutralization Index [19]: 50.6; IC50, pseudovirus neutralization [7]: > 50 µg/mL; IC50, pseudovirus neutralization [9]: > 50 µg/mL; IC50, pseudovirus neutralization [10]: 0.008 µg/mL; IC50 (µg/mL), pseudovirus neutralization [11]: 0.064 µg/mL; neutralization IC50 (pseudovirus) [12]: 0.0128 µg/mL; neutralization IC50 [13]: > 50 µg/mL; IC50 (µg/mL), pseudovirus neutralization [14]: 0.021 µg/mL
5136_H01 (PGT-131) (antibody) | 6.2 |  | 10.7 µg/mL | 7.75 µg/mL | > 50 µg/mL | 3.71 µg/mL | 4.05 µg/mL | 1.36 µg/mL | 354 | 0.014 µg/mL | 1.41 µg/mL | > 50 µg/mL | 11.2 µg/mL | > 50 µg/mL | > 50 µg/mL | 0.029 µg/mL | > 50 µg/mL | 0.026 µg/mL | 0.065 µg/mL | > 50 µg/mL | 
5141_B17 (PGT-126) (antibody) | 1410 | 0.0249 µg/mL | > 50 µg/mL | 17.1 µg/mL |  |  |  |  | 2.3 |  |  |  |  |  |  |  |  |  |  |  | Polyclonal Transfectant Neutralization Index [1]: 102; IC50 [2]: 0.03 µg/mL; IC50 (µg/mL), pseudovirus neutralization [3]: 5.89 µg/mL; IC50, pseudovirus neutralization [5]: > 10 µg/mL; IC80 (pseudovirus neutralization) [5]: > 10 µg/mL; IC90 (pseudovirus neutralization) [5]: > 10 µg/mL; IC95 (pseudovirus neutralization) [5]: > 10 µg/mL; Polyclonal Transfectant Neutralization Index [19]: 2.74; IC50, pseudovirus neutralization [7]: > 50 µg/mL; IC50, pseudovirus neutralization [9]: > 50 µg/mL; IC50, pseudovirus neutralization [10]: 0.009 µg/mL; IC50 (µg/mL), pseudovirus neutralization [11]: 0.078 µg/mL; neutralization IC50 (pseudovirus) [12]: 0.012 µg/mL; neutralization IC50 [13]: 15.6 µg/mL; IC50 (µg/mL), pseudovirus neutralization [14]: 0.007 µg/mL
5147_N06 (PGT-130) (antibody) | 19.3 | > 10 µg/mL | 5.84 µg/mL | 8.45 µg/mL | > 50 µg/mL | 2.76 µg/mL | 0.136 µg/mL | 0.935 µg/mL | 538 | 0.009 µg/mL | 0.337 µg/mL | 24.7 µg/mL | 0.869 µg/mL | > 50 µg/mL | > 50 µg/mL | 0.01 µg/mL | > 50 µg/mL | 0.009 µg/mL | 0.008 µg/mL | > 50 µg/mL | Polyclonal Transfectant Neutralization Index [1]: 1.24; Polyclonal Transfectant Neutralization Index [19]: 4.2; Neutralization by PGT-130, IC50 [12]: 0.0345 µg/mL; Neutralization by PGT-130, IC80 [12]: 0.573 µg/mL; Neutralization by PGT-130, IC90 [12]: 2.88 µg/mL; Neutralization by PGT-130, IC95 [12]: > 10 µg/mL; neutralization IC50 (pseudovirus) [12]: 0.0345 µg/mL
5329_C19 (PGT-136) (antibody) | 0.9 | > 10 µg/mL | 0.152 µg/mL | > 50 µg/mL | > 50 µg/mL | 0.034 µg/mL | 0.428 µg/mL | > 50 µg/mL |  | > 50 µg/mL | > 50 µg/mL | > 50 µg/mL | > 50 µg/mL | > 50 µg/mL | > 50 µg/mL | > 50 µg/mL | > 50 µg/mL | > 50 µg/mL | > 50 µg/mL | > 50 µg/mL | IC50 (neutralizing activity, pseudovirus) [31]: > 10 µg/mL; IC50 (neutralizing activity, pseudovirus) [12]: > 10 µg/mL
5343_B08 (PGT-135) (antibody) | 1.8 | > 10 µg/mL | 0.062 µg/mL | 0.592 µg/mL | > 50 µg/mL | 0.046 µg/mL | 0.071 µg/mL | > 50 µg/mL |  | > 50 µg/mL | > 50 µg/mL | > 50 µg/mL | > 50 µg/mL | > 50 µg/mL | > 50 µg/mL | 0.131 µg/mL | > 50 µg/mL | > 50 µg/mL | > 50 µg/mL | > 50 µg/mL | IC50 (neutralizing activity, pseudovirus) [31]: > 10 µg/mL; IC50 (neutralizing activity, pseudovirus) [12]: 0.545 µg/mL
5345_I01 (PGT-137) (antibody) | 1.1 |  | 0.051 µg/mL | > 50 µg/mL | > 50 µg/mL | 0.026 µg/mL | 5.06 µg/mL | > 50 µg/mL |  | > 50 µg/mL | > 50 µg/mL | > 50 µg/mL | > 50 µg/mL | > 50 µg/mL | > 50 µg/mL | > 50 µg/mL | > 50 µg/mL | > 50 µg/mL | > 50 µg/mL | > 50 µg/mL | 
